In article PMC10041110 one finds stoichiometry N data, which are given here for 1 substance.

The target of the assay is Chikungunya virus nonstructural protein 1 (nsP1) capping pore (Chikungunya virus). The assay can be described thus: cryo-EM structure.

The stoichiometry N is the number of molecules, sites or subunits per partner or assembly. The substance “Chikungunya virus nonstructural protein 1 (nsP1) capping pore (enzyme)” gave a stoichiometry N of 12.
